The values that follow are results of earlier work, collected in paper PMC6589385.

This data set has as its target His19 (position 19, …). As to the kind of experiment: NMR. The settings on record: Membrane-bound wild-type BM2 tetrameric channel.

In general, pKa refers to the pH at which an ionisable group is half protonated. Turning to MLEPFQILSISSFILSALHFMAWTIGHLNQIKR [Influenza B virus M2 protein (BM2) transmembrane domain, wild type (Influenza B virus)], the pKa is 5.1.
